Experimental data: patent US20220002436A1 (DENALI THERAPEUTICS, published 2022)

What was measured:
Human TfR apical domain [1] = molecular target: T1, Human TfR apical domain (human, UniProt P02786 198-378); experiment: SPR (Biacore), apical hTfR
T1 construct: also called apical hTfR; human apical hTfR

Human TfR apical domain [2] = molecular target: T1, Human TfR apical domain; experiment: SPR (Biacore 8K), fusion protein captured with Human Fab Capture Kit, human TfR apical domain as analyte, 1:1 kinetic fit
Method: The affinities of Fc polypeptide dimer-antibody variable region fusion proteins for human TfR apical domain and HER2 ECD were determined by surface plasmon resonance using a Biacore™ 8K. Fc polypeptide dimer-antibody variable region fusion proteins were captured using a Human Fab Capture Kit (GE, #28-9583-25) on Biacore™ Series S CM5 sensor chips (GE, #29149604) for measurement of human TfR apical domain binding, or using a Human Fc capture Kit (GE, #29234600) for measurement of human HER2-ECD binding (ACROBiosystems, HE2-H5225). Serial 3-fold dilutions of each antigen were injected at a flow rate of 30 μL/min. The binding of the antigens to captured Fc polypeptide dimer-antibody variable region fusion proteins was monitored for 30 to 300 seconds and then their dissociation was monitored for 30-4,200 seconds in HBS-EP+ running buffer. Binding responses were corrected by subtracting the RU from a blank flow cell. A 1:1 Languir model of simultaneous fitting of kₒₙ and koff was used for kinetics analysis.

[3] = molecular target: HER2 on HER2-positive cancer cells (BT474, OE19, SK-BR-3) (human, UniProt P04626 23-1255); experiment: cell-based or functional assay
Human TfR apical domain [4] = molecular target: T1, Human TfR apical domain; experiment: SPR (Biacore T200 or 8K), captured via anti-human Fab, recombinant TfR apical domain as analyte, steady-state affinity
Method: (§1) Affinities of mAbs and TfR-binding Fc polypeptides were measured by SPR using a Biacore T200 or a Biacore 8K. Biacore™ Series S CM5 sensor chips were immobilized with monoclonal mouse anti-human IgG (Fc) antibody for HER2 affinity measurements or mouse anti-human Fab for TfR affinity measurements (human antibody or Fab capture kit from GE Healthcare). Serial 3-fold dilutions of analyte (recombinant HER2 extracellular domain or recombinant TfR apical domain) were injected at a flow rate of 30 μL/min. Each sample was analyzed using a 3-minute association and a 10-minute dissociation. After each injection, the chip was regenerated using 3 M MgCl₂. Binding response was corrected by subtracting the RU from a flow cell capturing an irrelevant IgG at similar density. A 1:1 Languir model of simultaneous fitting of kₒₙ and koff was used for kinetics analysis.

[5] = molecular target: T2, HER2 extracellular domain (human, UniProt P04626 23-652); experiment: SPR (Biacore T200 or 8K), captured via anti-human IgG (Fc), recombinant HER2 extracellular domain as analyte, 1:1 kinetic fit
T2 construct: extracellular domain; also called HER2 ECD; HER2-ECD
Method: as §1

Human TfR apical domain [6] = molecular target: T1, Human TfR apical domain; experiment: SPR (Biacore), antibody captured via anti-human Fab, recombinant TfR apical domain as analyte; the table footnote says NB = no binding
Method: as §1

T1 sequence (P02786 198-378 limits assumed): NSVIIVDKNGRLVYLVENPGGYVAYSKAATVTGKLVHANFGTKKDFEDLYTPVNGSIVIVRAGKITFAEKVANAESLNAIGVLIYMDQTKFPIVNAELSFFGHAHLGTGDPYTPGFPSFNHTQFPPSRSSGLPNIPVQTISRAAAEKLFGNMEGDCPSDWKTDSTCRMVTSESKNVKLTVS

Row | Binder | Kd (Human TfR apical domain [1]) | Kd (Human TfR apical domain [2]) | Kd (Human TfR apical domain [4]) | Kd [5] | koff [5] | kon [5] | binding result (Human TfR apical domain [6]) | IC50, BT474 cell viability (growth inhibition assay) [3] | IC50, OE19 cell viability (growth inhibition assay) [3]
1 | HER2_DII-35.23.1.1^cisLALA (bispecific antibody, human IgG1, kappa, L234A L235A, Fc polypeptide dimer-Fab fusion; the second heavy chain is a hole Fc without a TfR site; also called ATV35.23.1.1:Her2_DII huIgG1.LALA.knob) heavy 1: EVQLVESGGGLVQPGGSLRLSCAASGFTFTDYTMDWVRQAPGKGLEWVADVNPNSGGSIYNQRFKGRFTLSVDRSKNTLYLQMNSLRAEDTAVYYCARNLGPSFYFDYWGQGTLVTVSSASTKGPSVFPLAPSSKSTSGGTAALGCLVKDYFPEPVTVSWNSGALTSGVHTFPAVLQSSGLYSLSSVVTVPSSSLGTQTYICNVNHKPSNTKVDKKVEPKSCDKTHTCPPCPAPEAAGGPSVFLFPPKPKDTLMISRTPEVTCVVVDVSHEDPEVKFNWYVDGVEVHNAKTKPREEQYNSTYRVVSVLTVLHQDWLNGKEYKCKVSNKALPAPIEKTISKAKGQPREPQVYTLPPSRDELTKNQVSLWCLVKGFYPSDIAVEWESFGTEWSNYKTTPPVLDSDGSFFLYSKLTVSKEEWQQGFVFSCSVMHEALHNHYTQKSLSLSPGK heavy 2: not shown light: not shown | 620 nM | 534 nM | – | – | – | – | – | – | –
2 | HER2_DI-35.23.4^cisLALA (bispecific antibody, human IgG1, kappa, L234A L235A, Fc polypeptide dimer-Fab fusion; the hole chain has no TfR site and no LALA; also called ATV:HER2-DI; ATV:-HER2-DI) heavy 1: QVQLQQPGAELVRPGASVKLSCKASGYSFTGYWMNWLKQRPGQGLEWIGMIHPSDSEIRANQKFRDKATLTVDKSSTTAYMQLSSPTSEDSAVYYCARGTYDGGFEYWGQGTTLTVSSASTKGPSVFPLAPSSKSTSGGTAALGCLVKDYFPEPVTVSWNSGALTSGVHTFPAVLQSSGLYSLSSVVTVPSSSLGTQTYICNVNHKPSNTKVDKKVEPKSCDKTHTCPPCPAPEAAGGPSVFLFPPKPKDTLMISRTPEVTCVVVDVSHEDPEVKFNWYVDGVEVHNAKTKPREEQYNSTYRVVSVLTVLHQDWLNGKEYKCKVSNKALPAPIEKTISKAKGQPREPQVYTLPPSRDELTKNQVSLWCLVKGFYPSDIAVEWESYGTEWSNYKTTPPVLDSDGSFFLYSKLTVSKEEWQQGFVFSCSVMHEALHNHYTQKSLSLSPGK heavy 2: not shown light: DIVLTQSPASLVVSLGQRATISCRASQSVSGSRFTYMHWYQQKPGQPPKLLIKYASILESGVPARFSGGGSGTDFTLNIHPVEEDDTATYYCQHSWEIPPWTFGGGTKLEIKRTVAAPSVFIFPPSDEQLKSGTASVVCLLNNFYPREAKVQWKVDNALQSGNSQESVTEQDSKDSTYSLSSTLTLSKADYEKHKVYACEVTHQGLSSPVTKSFNRGEC | – | – | 370 nM | 7.5 nM | 0.00105 s⁻¹ | 139000 M⁻¹ s⁻¹ | – | – | –

The next lines start with results.

Row | Kd (Human TfR apical domain [1]) | Kd (Human TfR apical domain [2]) | Kd (Human TfR apical domain [4]) | Kd [5] | koff [5] | kon [5] | binding result (Human TfR apical domain [6]) | Binder | IC50, BT474 cell viability (growth inhibition assay) [3] | IC50, OE19 cell viability (growth inhibition assay) [3]
3 | – | 445 nM | 450 nM | – | – | – | – | HER2_DII-35.23.4^cisLALA (bispecific antibody, human IgG1, kappa, L234A L235A, also called ATV:HER2-DII; ATV:-HER2-DII) heavy 1: EVQLVESGGGLVQPGGSLRLSCAASGFTFTDYTMDWVRQAPGKGLEWVADVNPNSGGSIYNQRFKGRFTLSVDRSKNTLYLQMNSLRAEDTAVYYCARNLGPSFYFDYWGQGTLVTVSSASTKGPSVFPLAPSSKSTSGGTAALGCLVKDYFPEPVTVSWNSGALTSGVHTFPAVLQSSGLYSLSSVVTVPSSSLGTQTYICNVNHKPSNTKVDKKVEPKSCDKTHTCPPCPAPEAAGGPSVFLFPPKPKDTLMISRTPEVTCVVVDVSHEDPEVKFNWYVDGVEVHNAKTKPREEQYNSTYRVVSVLTVLHQDWLNGKEYKCKVSNKALPAPIEKTISKAKGQPREPQVYTLPPSRDELTKNQVSLWCLVKGFYPSDIAVEWESYGTEWSNYKTTPPVLDSDGSFFLYSKLTVSKEEWQQGFVFSCSVMHEALHNHYTQKSLSLSPGK heavy 2: not shown light: not shown | 1.17 nM | 0.725 nM
4 | – | – | – | 6.5 nM | 0.00101 s⁻¹ | 154000 M⁻¹ s⁻¹ | no binding | anti-HER2-DI (antibody, human IgG1, kappa, V domains shown) VH: QVQLQQPGAELVRPGASVKLSCKASGYSFTGYWMNWLKQRPGQGLEWIGMIHPSDSEIRANQKFRDKATLTVDKSSTTAYMQLSSPTSEDSAVYYCARGTYDGGFEYWGQGTTLTVSS VL: DIVLTQSPASLVVSLGQRATISCRASQSVSGSRFTYMHWYQQKPGQPPKLLIKYASILESGVPARFSGGGSGTDFTLNIHPVEEDDTATYYCQHSWEIPPWTFGGGTKLEIKR | – | –
